Columns and labels:
SSB1 S172P/H173L = SSB1 S172P/H173L (human, UniProt Q9BQ15 1-211, S172P;H173L); test: EMSA; retains ssDNA binding; EMSA: 100 nM Cy3 probe, 20 mM Tris-HCl pH 7.5, 50 mM NaCl, 5 mM MgCl2, 0.2 mM EDTA, 1 mM DTT, on ice 30 min; 6% native PAGE, 0.5x TBE, cold room; details: protein: recombinant; label: 3' Cy3
SSB1 R206Q = SSB1 R206Q (human, UniProt Q9BQ15 1-211, R206Q); test: as above; details: protein: recombinant; label: 3' Cy3
[1] = target: SSB1;INTAC complex (Integrator-PP2A) (human;human, UniProt Q9BQ15;Q8N201;Q9H0H0;Q68E01;Q96HW7;Q6P9B9;Q9UL03;Q9NVH2;Q75QN2;Q9NV88;Q9NVR2;Q5T …, |); test: EMSA; supershift versus SSB1 alone; EMSA: 100 nM Cy3 probe, 20 mM Tris-HCl pH 7.5, 50 mM NaCl, 5 mM MgCl2, 0.2 mM EDTA, 1 mM DTT, on ice 30 min; 6% native PAGE, 0.5x TBE, cold room; details: protein: recombinant;recombinant; on-column cleavage; copies: 1;1;1;1;1;1;1;1;1;1;1;1;1;1;1;1;1; label: 3' Cy3

Measured: binding result

Sequence of SSB1 R206Q (Q9BQ15 whole entry R206Q): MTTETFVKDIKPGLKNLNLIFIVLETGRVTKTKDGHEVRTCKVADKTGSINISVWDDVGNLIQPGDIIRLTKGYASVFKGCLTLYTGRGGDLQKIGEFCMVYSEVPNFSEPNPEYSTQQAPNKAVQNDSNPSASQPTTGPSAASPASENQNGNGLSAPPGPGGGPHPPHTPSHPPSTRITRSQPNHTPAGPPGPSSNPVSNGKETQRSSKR
Sequence of SSB1 S172P/H173L (Q9BQ15 whole entry S172P/H173L): as the sequence (Q9BQ15 whole entry R206Q) above, with S172P, H173L, Q206R counted along it

TTTTTTTTTTTTTTTTTTTTTTTTTTTTTTTTTTTTTTTTTTTTTTTT (ssDNA) [oligo (dT)48]
binds: all assays above

From publication PMC10511320, “R-loop-dependent promoter-proximal termination ensures genome stability”
